Results published in publication PMC5432123.

Target: microtubules (tubulin)

B1: UNC-104 (1-371 a.a), truncated version (domain or fragment)
chain: MSSVKVAVRVRPFNQREISNTSKCVLQVNGNTTTINGHSINKENFSFNFDHSYWSFARNDPHFITQKQVYEELGVEMLEHAFEGYNVCIFAYGQTGSGKSYTMMGKANDPDEMGIIPRLCNDLFARIDNNNDKDVQYSVEVSYMEIYCERVKDLLNPNSGGNLRVREHPLLGPYVDDLTKMAVCSYHDICNLMDEGNKARTVAATNMNSTSSRSHAVFTIVLTQKRHCADSNLDTEKHSKISLVDLAGSERANSTGAEGQRLKEGANINKSLTTLGLVISKLAEESTKKKKSNKGVIPYRDSVLTWLLRENLGGNSKTAMLAALSPADINFDETLSTLRYADRAKQIVCQAVVNEDPNAKLIRELNEEVIK
in vitro MT gliding assay, speed of MT gliding (n = 25): 1.68 mμ/sec

B2: UNC-104 (1-371 a.a) V6I, truncated version (domain or fragment)
chain: MSSVKIAVRVRPFNQREISNTSKCVLQVNGNTTTINGHSINKENFSFNFDHSYWSFARNDPHFITQKQVYEELGVEMLEHAFEGYNVCIFAYGQTGSGKSYTMMGKANDPDEMGIIPRLCNDLFARIDNNNDKDVQYSVEVSYMEIYCERVKDLLNPNSGGNLRVREHPLLGPYVDDLTKMAVCSYHDICNLMDEGNKARTVAATNMNSTSSRSHAVFTIVLTQKRHCADSNLDTEKHSKISLVDLAGSERANSTGAEGQRLKEGANINKSLTTLGLVISKLAEESTKKKKSNKGVIPYRDSVLTWLLRENLGGNSKTAMLAALSPADINFDETLSTLRYADRAKQIVCQAVVNEDPNAKLIRELNEEVIK
in vitro MT gliding assay, speed of MT gliding (n = 25): 1.35 μm/sec
